This is an account of results in PMC9413769.

The assay deals with eGFP-Unr (UniProt O75534). The experiment in a line: FRET or BRET. For orientation: Bioluminescence resonance energy transfer reports proximity on the nanometre scale.
Chain of UniProt O75534 (O75534 whole entry): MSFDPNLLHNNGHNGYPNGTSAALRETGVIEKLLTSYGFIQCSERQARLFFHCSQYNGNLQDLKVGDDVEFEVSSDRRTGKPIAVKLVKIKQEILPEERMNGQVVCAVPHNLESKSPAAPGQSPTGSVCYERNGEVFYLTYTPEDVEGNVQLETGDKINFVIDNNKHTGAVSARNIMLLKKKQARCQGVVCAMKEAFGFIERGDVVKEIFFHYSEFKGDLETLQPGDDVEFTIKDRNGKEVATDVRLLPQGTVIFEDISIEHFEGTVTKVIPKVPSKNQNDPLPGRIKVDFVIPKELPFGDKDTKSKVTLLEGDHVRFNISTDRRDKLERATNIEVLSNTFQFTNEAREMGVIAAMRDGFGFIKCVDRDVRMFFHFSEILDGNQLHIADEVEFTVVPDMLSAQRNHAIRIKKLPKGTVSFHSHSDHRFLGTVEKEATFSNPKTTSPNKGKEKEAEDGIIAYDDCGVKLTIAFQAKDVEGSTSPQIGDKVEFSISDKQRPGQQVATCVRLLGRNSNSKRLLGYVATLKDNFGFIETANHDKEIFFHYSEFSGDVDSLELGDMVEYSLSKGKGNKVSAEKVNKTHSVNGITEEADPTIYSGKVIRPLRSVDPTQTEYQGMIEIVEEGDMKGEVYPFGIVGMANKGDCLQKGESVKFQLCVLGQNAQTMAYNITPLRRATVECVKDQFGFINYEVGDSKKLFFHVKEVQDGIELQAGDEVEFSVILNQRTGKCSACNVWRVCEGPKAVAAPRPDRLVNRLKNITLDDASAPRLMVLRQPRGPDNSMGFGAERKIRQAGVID

Take GagG2A-mCherry (natural protein): the FRET efficiency (one-population analysis) stood at 7.5%, the FRET efficiency of the interacting population (two-population analysis) was 46% and the percent of eGFP-Unr interacting (two-population analysis) is 25%.

NCp7-mCherry (natural protein) returned an FRET efficiency of the interacting population (two-population analysis) greater than 35%, an average FRET efficiency (one-population analysis) of 5.1% and a percent of eGFP-Unr interacting (two-population analysis) of 21%.

Take mCherry-NCp7 (natural protein): the FRET efficiency of the interacting population (two-population analysis) was greater than 35%, the average FRET efficiency (one-population analysis) came out at 6.8% and the percent of eGFP-Unr interacting (two-population analysis) amounted to 26%.
